{"source": "patent US7906477", "key": {"Abz-GKAFRRLY′": {"tested_on": "T1, Abz-GKAFRRLY′", "T1 sequence": "GKAFRRLY", "conditions": "for Relative hydrolysis rate: scale: relative"}, "[1]": {"tested_on": "T2, ac-GKAFRR-L12ADT (SEQ ID NO:41)", "T2 sequence": "GKAFRRX", "conditions": "for Relative hydrolysis rate: scale: relative"}, "GKAFR-AMC": {"tested_on": "T3, GKAFR-AMC", "T3 sequence": "GKAFR"}, "[2]": {"tested_on": "T4, Y′GKAFRLK′-PEGA (SEQ ID NO:52)", "T4 sequence": "XGKAFRLX"}, "[3]": {"tested_on": "T5, Y′GKAFRR-Dap-FK′ (SEQ ID NO:38)", "T5 sequence": "XGKAFRRXFX"}, "[4]": {"tested_on": "T6, Y′GKAFRRLGK′ (SEQ ID NO:21)", "T6 sequence": "XGKAFRRLGX"}, "[5]": {"tested_on": "T7, Y′GKAKPR-Dap-FK′ (SEQ ID NO:37)", "T7 sequence": "XGKAKPRXFX"}, "[6]": {"tested_on": "T8, Y′GKAMRQ-Dap-FK′ (SEQ ID NO:39)", "T8 sequence": "XGKAMRQXFX"}, "[7]": {"tested_on": "T9, Y′GKARAF-Dap-FK′ (SEQ ID NO:36)", "T9 sequence": "XGKARAFXFX"}, "[8]": {"tested_on": "T10, Y′GSKGHFHL-Dap-K′ (SEQ ID NO:47)", "T10 sequence": "XGSKGHFHLXX"}, "[9]": {"tested_on": "T11, Y′GSKGHFKL-Dap-F-K′ (SEQ ID NO:40)", "T11 sequence": "XGSKGHFKLXFX"}, "[10]": {"tested_on": "T12, Y′GSKGHFKL-Dap-K′ (SEQ ID NO:45)", "T12 sequence": "XGSKGHFKLXX"}, "[11]": {"tested_on": "T13, Y′GSKGPFKL-Dap-K′ (SEQ ID NO:46)", "T13 sequence": "XGSKGPFKLXX"}, "[12]": {"tested_on": "T14, ac-GKAFRRLG (SEQ ID NO:43)", "T14 sequence": "GKAFRRLG"}, "[13]": {"tested_on": "soluble non-arginine containing peptides"}}, "data": [{"substance": "Cathepsin D", "values": [{"measurement": "hydrolysis by protease", "setting": "Abz-GKAFRRLY′", "result": "No appreciable hydrolysis of either substrate was observed following incubation with Cathepsin D or Cathepsin B"}, {"measurement": "Relative hydrolysis rate", "setting": "Abz-GKAFRRLY′", "result": 1}, {"measurement": "hydrolysis by protease", "setting": "[1]", "result": "No appreciable hydrolysis of either substrate was observed following incubation with Cathepsin D or Cathepsin B"}, {"measurement": "Relative hydrolysis rate", "setting": "[1]", "result": 1}]}, {"substance": "Plasmin", "values": [{"measurement": "rate of hydrolysis relative to hK2", "setting": "Abz-GKAFRRLY′", "result": "Plasmin had a more than 10-fold slower rate of hydrolysis of the peptide substrate than hK2"}, {"measurement": "Relative hydrolysis rate", "setting": "Abz-GKAFRRLY′", "result": 36}]}, {"substance": "Cathepsin B", "values": [{"measurement": "hydrolysis by protease", "setting": "Abz-GKAFRRLY′", "result": "No appreciable hydrolysis of either substrate was observed following incubation with Cathepsin D or Cathepsin B"}, {"measurement": "Relative hydrolysis rate", "setting": "Abz-GKAFRRLY′", "result": 1}, {"measurement": "hydrolysis by protease", "setting": "[1]", "result": "No appreciable hydrolysis of either substrate was observed following incubation with Cathepsin D or Cathepsin B"}, {"measurement": "Relative hydrolysis rate", "setting": "[1]", "result": 1}]}, {"substance": "Urokinase", "values": [{"measurement": "hydrolysis by protease", "setting": "Abz-GKAFRRLY′", "result": "Urokinase showed low activity on the fluorescence quenched peptide substrate"}, {"measurement": "Relative hydrolysis rate", "setting": "Abz-GKAFRRLY′", "result": 17}, {"measurement": "Relative hydrolysis rate", "setting": "[1]", "result": 1}]}, {"substance": "human glandular kallikrein 2 (hK2), enzymatically active", "values": [{"measurement": "Relative hydrolysis rate", "setting": "Abz-GKAFRRLY′", "result": 353}, {"measurement": "Km", "setting": "GKAFR-AMC", "result": "Km 146 µM"}, {"measurement": "kcat", "setting": "GKAFR-AMC", "result": "kcat 0.13 sec^-1"}, {"measurement": "kcat/Km", "setting": "GKAFR-AMC", "result": "kcat/Km 895 sec^-1 M^-1"}, {"measurement": "incubation time until fluorescent beads (on-bead digestion, 4 µg/ml hK2)", "setting": "[2]", "result": "digested to yield fluorescent beads after 10-12 hours of incubation with 4 µg/ml hK2"}, {"measurement": "Michaelis-Menten constant (Km)", "setting": "[3]", "result": "The Michaelis-Menten constant (Km) was determined at 26.5 µM"}, {"measurement": "hK2 mediated hydrolysis (fluorescence, 250 µM substrate, 8 µg/ml hK2)", "setting": "[3]", "result": "by far exceeded all other substrates"}, {"measurement": "kcat", "setting": "[3]", "result": "the kcat at 1.09 sec^-1"}, {"measurement": "kcat/Km ratio", "setting": "[3]", "result": "the kcat/Km ratio was 41,132 sec^-1 M^-1"}, {"measurement": "on-bead digestion with hK2 (fluorescence)", "setting": "[3]", "result": "reproduced fluorescence when these peptides were digested on-bead with hK2"}, {"measurement": "time to maximum digestion (70-75%)", "setting": "[3]", "result": "a value that was reached with Y′GKAFRR-Dap-F-K′ (SEQ ID NO:38) in less than 15 minutes"}, {"measurement": "time to more than 50% digestion (500 µM peptide, 4 µg/ml hK2)", "setting": "[3]", "result": "In less than five minutes, more than 50% of the peptide was digested"}, {"measurement": "hK2 hydrolysis rate (fluorescence)", "setting": "[4]", "result": "Substitution of Dap-F with Leu-Gly resulted in only a modest decrease in hydrolysis rate"}, {"measurement": "on-bead digestion with hK2 (fluorescence)", "setting": "[5]", "result": "reproduced fluorescence when these peptides were digested on-bead with hK2"}, {"measurement": "time to digestion of the same amount (more than 50%) of peptide", "setting": "[5]", "result": "For the other peptides, digestion of the same amount of peptide took 19-29 minutes"}, {"measurement": "on-bead digestion with hK2 (fluorescence)", "setting": "[6]", "result": "reproduced fluorescence when these peptides were digested on-bead with hK2"}, {"measurement": "time to digestion of the same amount (more than 50%) of peptide", "setting": "[6]", "result": "For the other peptides, digestion of the same amount of peptide took 19-29 minutes"}, {"measurement": "on-bead digestion with hK2 (fluorescence)", "setting": "[7]", "result": "reproduced fluorescence when these peptides were digested on-bead with hK2"}, {"measurement": "time to digestion of the same amount (more than 50%) of peptide", "setting": "[7]", "result": "For the other peptides, digestion of the same amount of peptide took 19-29 minutes"}, {"measurement": "digestion by hK2 in solution (fluorescence-quenched peptide)", "setting": "[8]", "result": "none of these three arginine free peptides were digested by hK2, even after prolonged incubation"}, {"measurement": "hK2 mediated hydrolysis (fluorescence, 250 µM substrate, 8 µg/ml hK2)", "setting": "[9]", "result": "did not show any hydrolysis"}, {"measurement": "digestion by hK2 in solution (fluorescence-quenched peptide)", "setting": "[10]", "result": "none of these three arginine free peptides were digested by hK2, even after prolonged incubation"}, {"measurement": "digestion by hK2 in solution (fluorescence-quenched peptide)", "setting": "[11]", "result": "none of these three arginine free peptides were digested by hK2, even after prolonged incubation"}, {"measurement": "hydrolysis by hK2 (4 µg/ml), HPLC", "setting": "[1]", "result": "the hK2 prodrug is rapidly cleaved by hK2"}, {"measurement": "percent of starting prodrug hydrolyzed after 1 hour (4 µg/ml hK2, HPLC)", "setting": "[1]", "result": "after 1 hour, more than 80% of the starting prodrug was hydrolyzed"}, {"measurement": "time to 50% hydrolysis (4 µg/ml hK2, HPLC)", "setting": "[1]", "result": "In 25 min, 50% was hydrolyzed"}, {"measurement": "Relative hydrolysis rate", "setting": "[1]", "result": 125}, {"measurement": "hydrolysis by hK2 (HPLC)", "setting": "[12]", "result": "this peptide was rapidly hydrolyzed by hK2"}, {"measurement": "hydrolysis by hK2 in solution", "setting": "[13]", "result": "the soluble non-arginine containing peptides were not hydrolyzed by hK2"}]}]}
